US20050095616A1

Legend:
[1] = system: IκB(S32A, S36A)-Bla mutant fusion protein
[2] = molecular target: IκBα-beta-lactamase (IκBα-Bla) fusion protein, wild type (N-terminal IκBα and C-terminal Bla); assay: cell-based or functional assay
proteasome = assay: cell-based or functional assay

Which “decrease in β-lactamase activity in response to TNFα treatment (10 ng/ml, 30 minutes)” value [1] does the source give for IκB kinase (IKK) here?
Its value is “the mutation of serines-32 and -36 abolished the decrease in β-lactamase activity in response to TNFα treatment”.

How did the decrease in β-lactamase activity of Jurkat IκB-Bla cells after 10 ng/ml TNFα [2] turn out when IκB kinase (IKK) (enzyme) was run?
Its decrease in β-lactamase activity of Jurkat IκB-Bla cells after 10 ng/ml TNFα is 2 fold.

How did the IC50 for inhibition of the TNFα-stimulated decrease in reporter levels (proteasome) turn out when ALLN (peptide) was run?
Its IC50 for inhibition of the TNFα-stimulated decrease in reporter levels is 5 µM.
